What was measured:
[1] = target: T1, human LAG-3 ECD/Fc fusion protein (human); assay: FACS RBA, huLAG-3 ECD/Fc on Raji; competitor MHC Class II
T1 construct: also called HuLAG-3 ECD/Fc
Method: Supernatants displaying LAG-3 specific activity were tested for the ability to block LAG-3 receptor binding to MHC Class II. Raji human B cell lymphoblasts express high levels of MCH Class II and were used as binding targets for LAG-3 ECD/Fc proteins described above. Briefly, Raji cells were harvested and resuspend in FACS buffer and plated in 96-well plates (2×10⁵ cells/well). Anti-LAG-3 hybridoma supernatants were mixed with soluble LAG-3 ECD/Fc and the mixture was added to wells at a final volume of 100 μl/well. After adding the mixture to cells, the plates were incubated at room temperature for 30 minutes. After washing twice with PBS, the cells were incubated with anti-human IgG Alexa Fluor® 488 secondary antibody at 4° C. for 1 hour, washed twice with PBS, then fluorescence was measured on a flow cytometer.
Purified anti-LAG-3 antibodies also were tested in a RBA in the same manner as described in Example 7.3. Antibodies were also tested in an antigen-specific T cell activation assay, as follows: A huLAG-3 expressing murine T hybridoma cell line was generated to order by ChemPartner (Shanghai, CN). Mouse splenocytes from the same strain of mice were used as effector cells. The hybridoma expressing the huLAG-3 receptor protein is capable of binding to MHC Class II-positive mouse splenocytes, with inhibitory effect via engagement of Class II. The assay tests for anti-LAG-3 antibody-mediated reversal of the inhibitory effect, as measured by increased production of IL-2. Mouse spleenocytes were harvested from 6-8 week-old female C57BL/6 mice, red blood cells were lysed using Red Blood Cell Lysis Buffer (Sigma-Aldrich; R7757) according to the maker's instructions. Next, 50 μl T hybridoma-huLAG-3 cells (2×10⁶ cells/ml) were seeded in each well of a 96-well culture plate, and then a series of anti-LAG-3 monoclonal antibodies in solution at 50 μl/well were added and incubated at 37° C. for 30 min. Mouse splenocytes (4×10⁶ cells/ml) and the antigen (20 μg/ml) were mixed and incubated at 37° C. for 30 min. The mixture (100 μl/well) was added into each well that was already seeded with T hybridoma-huLAG-3 cells and anti-LAG-3 mAbs. The mixture of antibodies, T hybridoma-huLAG-3 cells, mouse splenocytes, and the antigen was cultured for 3 days.

[2] = target: T2, human LAG-3 expressed on cells (human, UniProt P18627 23-525); assay: FACS, HEK 293F huLAG-3 cells
T2 construct: whole, on cells; also called HEK 293F cells expressing human LAG-3; T hybridoma-huLAG-3 cells
T2 sequence (looked up): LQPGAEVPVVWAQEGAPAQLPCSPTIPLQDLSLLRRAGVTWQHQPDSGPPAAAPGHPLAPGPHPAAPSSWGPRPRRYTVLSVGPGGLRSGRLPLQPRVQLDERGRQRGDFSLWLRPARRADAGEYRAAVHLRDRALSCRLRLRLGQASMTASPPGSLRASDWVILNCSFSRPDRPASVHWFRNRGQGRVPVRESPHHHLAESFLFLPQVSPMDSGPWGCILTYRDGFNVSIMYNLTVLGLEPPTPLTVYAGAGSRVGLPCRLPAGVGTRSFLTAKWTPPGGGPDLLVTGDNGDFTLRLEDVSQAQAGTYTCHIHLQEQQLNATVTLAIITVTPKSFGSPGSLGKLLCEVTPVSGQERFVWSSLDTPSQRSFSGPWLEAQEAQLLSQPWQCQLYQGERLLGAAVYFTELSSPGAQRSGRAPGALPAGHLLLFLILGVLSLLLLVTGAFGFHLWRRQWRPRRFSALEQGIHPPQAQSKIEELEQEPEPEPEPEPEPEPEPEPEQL
Method: (§1) FAGS analysis was performed using methods similar to Example 1.4, above, except that stable HEK 293F cell lines expressing either human LAG-3 cynomolgus LAG-3 were used. LAG-3 expressing cells were charged at 2×10⁴ cell per well into 96-well assay round-bottomed assay plates (Cat. No. 3799; Corning) and stained with purified anti-LAG-3 antibodies. LAG-3 antibodies were detected with AlexaFluor® Donkey anti-Mouse Ig (H+L) Highly Cross-Adsorbed Secondary Antibody (Cat. No. A21202; Invitrogen), and cell fluorescence was monitored using a flow cytometer. The data were processed by GraphPad software, and EC50 values were calculated.

[3] = target: T3, cynomolgus LAG-3 expressed on HEK 293F cells (cynomolgus); assay: FACS, HEK 293F cynoLAG-3 cells
T3 construct: whole, on cells
Method: as §1

[4] = target: T1, human LAG-3 ECD/Fc fusion protein; assay: ELISA, coated huLAG-3 ECD/Fc
Method: The supernatants of hybridoma clones were primarily screened by ELISA. Briefly, 50 μl/well of […] human LAG-3 ECD/Fc in NaHCO₃ were directly coated in each well of 96-well plate overnight. Plates were washed 3 times with 1×PBST, 300 μl per well. After blocking with 1% BSA in PBST at 250 μl per well and incubating at room temperature for 1 hour, the hybridoma supernatants were added at 50 μl per well and incubated at 37° C. for 1 hour. After washing, an HRP-linked goat anti-mouse IgG Fc secondary antibody (Cat. No. A0168, Sigma) was added at 100 μl/well and the plates were incubated at room temperature for 1 hour. TMB reagent (InnoReagents) was used to detect and develop the ELISA signal at 100 μl/well for 15 minutes, the reaction was stopped with 1 Normal HCL. The plates were read with a plate reader (SpectraMax® M5e, Molecular Devices, USA) at a wavelength of 450 nm. The ELISA-positive antibody producer clones were further verified by FACS analysis using methods similar to Example 1.4, above, except that stable HEK 293F cell lines expressing either human LAG-3 or cynomolgus LAG-3 were used. Hybridomas producing LAG-3 binding activity were selected and further characterized in a receptor blocking assay (RBA).
A binding ELISA was performed in the same way as described in Example 7.2 above. Each purified antibody was 10-fold serially diluted. After blocking of a 96-well assay plate with wells containing immobilized LAG-3 ECD/Fc fusion protein targets, the purified antibody samples with diluted concentrations were added to wells of the assay plate. The HRP-linked anti-mouse IgG antibody (A0168, Sigma) and TMB reagent were used to detect and develop the ELISA signal, which were read on a SpectraMax M5e plate reader at wavelength of 450 nm. Curves were fitted using GraphPad software, and EC50 values were calculated. Similarly, a RBA was also performed as described in Example 7.3 with titrated, purified antibodies, and maximum inhibition percentages and IC50 values were determined.

[5] = target: T2, human LAG-3 expressed on cells; assay: cell-based or functional assay
[6] = target: LAG-3 antigen (Biacore analyte of Example 7.7); assay: SPR Biacore T200, mAb captured, LAG-3 antigen analyte
Method: For antibodies with high binding affinity in ELISA and FACS assays, as well as potent functional activity, binding affinities were determined based on measurement of binding kinetic constants in real time binding reactions using Biacore surface plasmon resonance. Briefly, the binding assay of antibody to antigen was performed using a Biacore T200 system through an antibody capture approach. Anti-mouse IgG Fc antibody was immobilized on a CM5 sensor chip according to the manufacturer's instructions. The test anti-LAG-3 murine monoclonal antibody was injected and captured by the immobilized anti-mouse IgG Fc. Then serial concentrations of LAG-3 antigen were individually injected, and the binding profile was recorded for each concentration of antigen analyte. The assay temperature was 25° C., and the association and dissociation times were 180 and 1200 seconds, respectively. The Biacore data were fitted using Biacore T200 evaluation software 1.0 according to a 1:1 binding model to calculate the association (kₒₙ) and dissociation (koff) rate constants and from these calculations the equilibrium dissociation constant (KD) was determined.

[7] = target: T4, recombinant human LAG-3-his protein (Novoprotein) (human, UniProt P18627 23-450); assay: BLI Octet, Ab on AHC sensor, huLAG-3-his; test group 2
T4 construct: Bought; also called huLAG-3; not shown: His tag
T4 sequence (looked up): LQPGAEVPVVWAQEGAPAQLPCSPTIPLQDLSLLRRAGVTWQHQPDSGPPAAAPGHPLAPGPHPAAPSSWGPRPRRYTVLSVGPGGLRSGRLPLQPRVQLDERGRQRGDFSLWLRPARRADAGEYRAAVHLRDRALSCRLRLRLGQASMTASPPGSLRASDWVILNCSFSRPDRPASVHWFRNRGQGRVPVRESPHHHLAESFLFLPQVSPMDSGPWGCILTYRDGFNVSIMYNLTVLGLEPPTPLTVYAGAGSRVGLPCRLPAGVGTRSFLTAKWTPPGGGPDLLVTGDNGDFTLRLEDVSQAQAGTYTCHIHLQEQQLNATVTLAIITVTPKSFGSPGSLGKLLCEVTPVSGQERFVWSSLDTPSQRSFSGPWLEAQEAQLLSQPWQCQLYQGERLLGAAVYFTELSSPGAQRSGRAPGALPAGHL
Method: (§2) All 9 humanized antibodies (Table 25) and a chimeric antibody having the parental murine VH and VL domains (mAb747c) were ranked by dissociation rate constant (koff). Briefly, antibodies were characterized for affinities and binding kinetics by Octet RED96 biolayer interferometry (Pall FortéBio LLC). Antibodies were captured by Anti-HIgG Fc Capture (AHC) Biosensors (Pall) at a concentration of 100 nM for 30 seconds. Sensors were then dipped into running buffer (1× pH7.2 PBS, 0.05% Tween 20, 0.1% BSA) for 60 seconds to check baseline. Binding was measured by dipping sensors into a single concentration of recombinant human LAG-3-his protein (Novoprotein). Dissociation was followed by dipping sensors into running buffer for 1200 seconds. The association and dissociation curves were fitted to a 1:1 Langmuir binding model using FortéBio Data Analysis software (Pall).
The seven Fab clones were converted to full IgG proteins. Briefly, the VH and VL genes were produced synthetically and then cloned into vectors containing coding sequences for the human IgG1 and human kappa constant domains, respectively. The heavy chain and cognate light chain plasmids were co-transfected into HEK 293E cells, individually. After approximately six days of post-transfection cell culture, the supernatants were harvested and subjected to Protein A affinity chromatography. The affinity of purified antibodies was ranked by Octet® RED96 biolayer interferometry (see, Example 9.1, supra).

[8] = target: T4, recombinant human LAG-3-his protein …; assay: BLI Octet, Ab on AHC sensor, huLAG-3-his analyte
Method: as §2

B1: mAb746 (antibody, V domains shown)
VH: EVQLQQSGAELVRPGASVKLSCTASDFNIKDDYMHWVKQRPEQGLDWIGWIVPENGNTEYASKFQGKATITADTSSNTAYLQLSSLTSEDTAVYYCTVYGDYWGQGTTLTVSS
VL: DIQMTQSPSSLSASLGERVSLNCRASQEISGYLSWLQQKSDGTIKRLIYAASTLDSGVPKRFSGSRSGSDYSLTISSLESEDFADYYCLQYASYPLTFGAGTKLELK
notes: murine hybridoma anti-LAG-3 mAb; also called rnAb746; 3502-mAb746
[1]
  IC50: 2.92 nM
  Max. Inhib. (%): 96.2%
[2]
  EC50: 13 nM
  Max-MFI: 121 MFI
[3]
  EC50: 4.1 nM
  Max-MFI: 66.2 MFI
[4]
  EC50: 0.31 nM
[5]
  Antigen-dependent Activation, Mouse IL-2, EC50: 1.28 nM
  Max IL-2: 654 pg/mL
[6]
  Kd: 37.7 nM

B2: mAb747 (antibody, V domains shown)
VH: EVQLQQSGAELVRPGASVKLSCTASDFNIKDDYMHWVKQRPEQGLDWIGWIVPENGNTEYASKFQGKATITADTSSNTAYLQLSSLTSEDTAVYYCTVYGDYWGQGTTLTVSS
VL: DIQMTQSPSSLSASLGERVSLNCRASQEISGYLSWLQQKPDGTIKRLIYAASTLDSGVPKRFSGSRSGSDYSLTISSLESEDFAAYYCLQYASYPLTFGAGTKLELK
notes: murine hybridoma anti-LAG-3 mAb; also called 3502-mAb747
[1]
  IC50: 2.84 nM
  Max. Inhib. (%): 96.3%
[2]
  EC50: 1.1 nM
  Max-MFI: 104 MFI
[3]
  EC50: 3.1 nM
  Max-MFI: 65.2 MFI
[4]
  EC50: 0.25 nM
[5]
  Antigen-dependent Activation, Mouse IL-2, EC50: 1.27 nM
  Max IL-2: 729 pg/mL
[6]
  Kd: 52 nM

B3: HumAb747-39 (antibody, human IgG1, V domains shown)
VH: EVQLVQSGAEVKKPGASVKVSCKASDFNIKDDYMHWVRQAPGQGLEWIGWIVPENGNTEYASKFQGRVTITADTSINTAYMELSRLRSDDTAVYYCTVYGDYWGQGTTVTVSS
VL: DIQMTQSPSSLSASVGDRVTINCRASQEISGYLSWLQQKPEGTIKRLIYAASTLDSGVPSRFSGSRSGSDYTLTISSLQPEDFATYYCLQYASYPLTFGGGTKVEIK
notes: humanized mAb747; human IgG1 and human kappa constant domains
[7]
  koff: 0.00391 s⁻¹
  off-rate ratio to that of mAb747c: 240%
[8]
  koff: 0.00114 s⁻¹

B4: mAb750 (antibody, V domains shown)
VH: EVQLQQSGAELVRPGASVKLSCTPSGLNIKDDYIHWVKQRPEQGLEWIGWIDPENGDTEYASKFQGKATITADTSSNTAYLQLSSLTSEDSAVYYCCTADYRNWYWGQGTTLTVSS
VL: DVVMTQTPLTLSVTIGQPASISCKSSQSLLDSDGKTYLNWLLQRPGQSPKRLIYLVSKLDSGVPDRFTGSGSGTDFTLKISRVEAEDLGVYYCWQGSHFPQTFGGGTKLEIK
notes: murine hybridoma anti-LAG-3 mAb
[1]
  IC50: 7.15 nM
  Max. Inhib. (%): 96.6%
[2]
  EC50: 24.1 nM
  Max-MFI: 88.7 MFI
[3]
  EC50: 114 nM
  Max-MFI: 36.7 MFI
[4]
  EC50: 0.25 nM
[5]
  Max IL-2: 552 pg/mL
[6]
  Kd: 75.1 nM

B5: mAb749 (antibody, V domains shown)
VH: EVQLQQSGAELVRPGASVKVSCTASDFNIKDDYVHWVKQRPEQGLEWIGWIDPENGDTEYASKFQGKATITADTSSNTAYLQLSSLTSEDTAVYFCSTWDAEENYWGQGTTLSVSS
VL: DIVLTQAAPSVPVTPGESVSISCRSSKSLLHSNGNTYLYWFLQRPGQSPQVLIYRMSNLASGVPVRFSGSGSGTAFTLRISRVEAEDVGVYYCMQHLEYPFTFGSGTKLEIK
notes: as for B4
[1]
  IC50: 4.73 nM
  Max. Inhib. (%): 93.9%
[2]
  EC50: 3.3 nM
  Max-MFI: 124 MFI
[3]
  EC50: 14.3 nM
  Max-MFI: 67.4 MFI
[4]
  EC50: 0.55 nM
[5]
  Max IL-2: 513 pg/mL
[6]
  Kd: 189 nM

— US20210188980A1 (SHANGHAI EPIMAB BIOTHERAPEUTICS, published 2021)
